From patent US20240010747A1, “ANTI-MRP4 (ENCODED BY ABCC4 GENE) ANTIBODIES AND USES THEREOF” (Kenjockety Biotechnology, Inc., priority 2020, published 2024)
Substitutions are numbered along the chain they refer to.

T1: human ABCC4 (Homo sapiens, UniProt O15439)
T1 construct: expressed in transfected cells
T1 sequence (O15439 1-1325): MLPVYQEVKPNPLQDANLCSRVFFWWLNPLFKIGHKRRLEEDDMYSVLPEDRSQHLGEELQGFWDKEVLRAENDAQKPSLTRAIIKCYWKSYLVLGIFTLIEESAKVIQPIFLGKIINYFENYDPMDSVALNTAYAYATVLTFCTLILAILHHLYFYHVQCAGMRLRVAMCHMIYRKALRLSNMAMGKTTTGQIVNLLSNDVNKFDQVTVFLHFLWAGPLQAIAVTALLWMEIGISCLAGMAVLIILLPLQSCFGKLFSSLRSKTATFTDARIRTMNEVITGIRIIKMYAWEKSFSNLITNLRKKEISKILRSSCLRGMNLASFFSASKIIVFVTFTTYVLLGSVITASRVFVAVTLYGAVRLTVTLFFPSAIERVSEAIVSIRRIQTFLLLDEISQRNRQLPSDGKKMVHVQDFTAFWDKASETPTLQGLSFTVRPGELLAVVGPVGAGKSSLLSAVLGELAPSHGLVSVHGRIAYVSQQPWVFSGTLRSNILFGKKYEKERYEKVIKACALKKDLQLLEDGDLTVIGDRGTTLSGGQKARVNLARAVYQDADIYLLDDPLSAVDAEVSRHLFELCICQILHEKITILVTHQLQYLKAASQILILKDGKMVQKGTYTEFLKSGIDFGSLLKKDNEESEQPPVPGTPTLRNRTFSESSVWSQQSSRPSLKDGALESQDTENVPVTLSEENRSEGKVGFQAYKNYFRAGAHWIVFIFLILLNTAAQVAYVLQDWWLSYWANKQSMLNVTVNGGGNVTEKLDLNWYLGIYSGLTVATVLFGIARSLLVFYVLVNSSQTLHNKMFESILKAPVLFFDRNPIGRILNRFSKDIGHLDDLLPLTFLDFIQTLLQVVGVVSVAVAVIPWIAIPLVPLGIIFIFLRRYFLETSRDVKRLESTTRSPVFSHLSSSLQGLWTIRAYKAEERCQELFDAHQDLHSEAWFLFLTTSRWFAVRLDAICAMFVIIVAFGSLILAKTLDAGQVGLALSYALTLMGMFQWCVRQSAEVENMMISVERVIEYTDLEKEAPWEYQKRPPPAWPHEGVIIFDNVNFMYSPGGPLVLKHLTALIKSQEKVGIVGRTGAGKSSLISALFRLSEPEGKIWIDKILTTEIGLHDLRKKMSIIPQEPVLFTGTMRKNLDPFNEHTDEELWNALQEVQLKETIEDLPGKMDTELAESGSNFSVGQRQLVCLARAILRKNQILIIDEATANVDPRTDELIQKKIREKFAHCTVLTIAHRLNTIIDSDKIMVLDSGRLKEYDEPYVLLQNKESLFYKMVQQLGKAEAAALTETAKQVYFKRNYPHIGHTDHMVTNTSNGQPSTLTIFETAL

B1: C4.1155: anti-ABCC4 antibody raised in rats; VH SEQ ID NO: 35, VL SEQ ID NO: 154 (antibody, V domains shown)
VH: EVKLLESGGGLVQPGGSLRLSCATSGFSFTDFYMSWIRQPLGKAPEWLGVIRNRAIGFRTEYNPSVKGRFTISRDNTQNILYLQMNTLRTEDTAIYYCARNNLGFDYWGQGASVTVSS
VL: TPPSLSVAIGQSVSISCKSSQSLVYSDGKTYLHWLLQISGRSPERLIYQVSNLDSGVPDRFSGTGSQKDFTLKISRVEAKDLGFYYCAQTTHFPYTFGAGTKLELK
B2: C4.994: anti-ABCC4 antibody raised in rats; VH SEQ ID NO: 17, VL SEQ ID NO: 137 (antibody, V domains shown)
VH: QIQLVQSGPELKKPGESVKISCKASGYTFTDYAIHWVTQAPGKGLKWMGWISTYTGKTTYTDDFKGRFVFSLDASASTANLQINNLKNEDTAAYFCARGGLQWFDYWGQGTLVTVSS
VL: EILLTQSPTAMAASPGEKVTITCRASFRVSYMHWYQQKPGASPKPWIYDTSKLASGVPTRFSGSGSGTSYSFTISSMETEDTATYYCQQWTSNSRTFGGGTKLVLK
B3: C4.1071: anti-ABCC4 antibody raised in rats; VH SEQ ID NO: 23, VL SEQ ID NO: 145 (antibody, V domains shown)
VH: EVQWKESGPGLVQPSQTLSLTCTVSGFSLTSYGVSWVRQPPGKGLEWIGAIWSGGGTDYNSALKSRLSISRDTSKSQVLLKMNSLQTEDTAMYFCAGNHYFDYWGQGTMVTVSS
VL: AIQVTQSPNSLSASLGDRVTLTCRASQDINNKMAWYQQKPGEVPQLLIYSASTLQSGTPSRFSGSGSGTDFSFTISHLQSEDFATYYCLQGYSLYTFGAGTKLELKRADAAP
B4: C4.1138: anti-ABCC4 antibody raised in rats; VH SEQ ID NO: 29, VL SEQ ID NO: 149 (antibody, V domains shown)
VH: EVQLKESGPGLVKPSETLSLTCTVSGFSLTSYHVSWVRQPPGKGLEWMGVIWGDGNTAYNSALKSRLSINRDTSKSQVFLKMNSLQTEDTATYYCARHPYYSIPYWGQGASVTVSS
VL: DIVLTQSPTTMAAFPGEKVTITCRASSSVSYMYWYQQKSGASPKSWIYETSKLASGVPDRFSGSGSGTSYSFTISSMETEDAATYYCHQWSSIPLTFGSGTKLEIK
B5: C4.1047A: anti-ABCC4 antibody raised in rats; VH SEQ ID NO: 20, VL SEQ ID NO: 140 (antibody, V domains shown)
VH: EVQLMESGPGLVQPSQTLSLTCTVSGLSLISNNINWVRQPPGKGLEWIGAISGGGSAFYNSALKSRLSFSRDTSKSQVFLKMNSLQTEDTAIYFCARGGSEDPDYFDYWGQGVMVTVSS
VL: ETVMTQTPSSLAVSAGETVTINCRSSQSLLYSGNQKNYLAWYQQKPGQSPKLLIYWSSTRQYGVPDRFIGSGSGTDFTLTISSVQAEDLAIYYCQQYYDTPLTFGSGTKLELK
B6: C4.1052: anti-ABCC4 antibody raised in rats; VH SEQ ID NO: 20, VL SEQ ID NO: 141 (antibody, V domains shown)
VH: B5 VH
VL: B5 VL with E1D, T2I, T7S, R24K, Y62S, I69M, L112I
B7: C4.1145: anti-ABCC4 antibody raised in rats; VH SEQ ID NO: 32, VL SEQ ID NO: 151 (antibody, V domains shown)
VH: EVKLVESGGGLVQPGRSLKLSCAASGFTFSNYDMAWVRQAPTKGLEWVASIIPSGGTSYYRDSVKGRFTVSRDNAKSTLYLQMDSLRSEDTATYYCARLTTSHYYVMDAWGQGASVTVSS
VL: DIWMTQSPTSMSISVGDRVTMNCKASQNVGSNVDWYQQKTGQSPKLLIYKASNRYTGVPDRFTGSGSGTDFTFTISNMQAEDLAVYYCMQSNSYPWTFGGGTKLELK
B8: C4.1146: anti-ABCC4 antibody raised in rats; VH SEQ ID NO: 32, VL SEQ ID NO: 152 (antibody, V domains shown)
VH: B7 VH
VL: DIWMTKSPSSMSASLGDRVTITCQASQDIGNNLIWFQQKPGKSPRRMIYYATNLANGVPSRFSGSRSGSDYSLTIISLESEDMADYHCLQYKQYPYTFGAGTKLEIK
B9: C4.1078: anti-ABCC4 antibody raised in rats; VH SEQ ID NO: 26, VL SEQ ID NO: 147 (antibody, V domains shown)
VH: EVQLVESGGGLVQPGGSLRLSCAASGFTFTDFYMSWIRQPPGKTPEWLGVIRNKAYVYTTEYNPSVKGRFTISRDNTQNILYLQMNTLRVEDTAIYYCARNWEGFASWGQGTLVTVSS
VL: DVVMTQTPPSLSVAIGQSVSISCKSSQSLVYSDGKTYLHWLLENSGRSPKRLIYRVSNLDSGVPDRFSGTGSQKDFTLKISRVEAQDLGVYYCAQTTHFPWTFGGGTKLELK
B10: C4.1006: anti-ABCC4 antibody raised in rats; VH SEQ ID NO: 19, VL SEQ ID NO: 139 (antibody, V domains shown)
VH: EVQLTESGPGLVQPSQTLSLTCTVSGFSLTSYDVHWVRQPPGKGLEWMGRMQNGGSTDYNSALKSRLSISRDTSKSQVFLKMNSVQTEDTAMYFCVRSFIIRGYWGQGASVTVSS
VL: DIVMTQGALPNPVPSGESASITCQSSKSLLYSDGKTYLNWYLQRPGQSPQLLIYWMSIRASGVSDRFSGSGSGTDFTLKISRVEAEDVGVYYCQQFLEFPYTFGAGTKLEIK

biological target: T1, human ABCC4; test: Flow cytometry (FACS) binding to C6 cells stably transfected to express human ABCC4 (different experiment, Table 4); details: C6 cells stably transfected to express human ABCC4, FACS; different experiment, Table 4
Method: (§1) Binding titration of recombinant antibodies to ABCC4 transfectants was performed by serial dilution of antibodies from about 666 nM. Diluted antibody in flow cytometry buffer was incubated with cells on ice for 30 min. After 2 washes with flow cytometry buffer, bound antibody was detected with PE-labeled F(ab′)2 fragment goat anti-human IgG (Jackson ImmunoResearch) diluted 1:200 in flow cytometry buffer and incubated with cells for 20 min on ice. After 2 washes with flow cytometry buffer fluorescence was measured on an Attune N×T flow cytometer. Data were analyzed with GraphPad Prism 8.0 software to determine EC50's.
(§2) Human embryonic kidney HEK 293T cells and murine C6 (ATCC CCL-107) were transfected with human or cynomolgus ABCC4 cDNA with C-terminal fused FLAG tag in a pMONO-hygro vector with Lipofectamine 3000 (Invitrogen #L3000001). The cells were treated with 0.2 mg/ml and 0.5 mg/ml hygromycin respectively for about 2 weeks while cultivated in DMEM and 10% FBS with 0.2 mg/ml hygromycin and 0.5 mg/ml hygromycin, respectively. The cells were washed with PBS, and stained with […] of anti-FLAG-PE after fixing and permeablization. Clones expressing ABCC4 were single-cell sorted into 200 μl DMEM with 10% FBS using a BD Aria FACS machine and cultivated in 96 well plates using standard techniques in an incubator at 37° C. and 5% CO 2. Two weeks later clones expressing high levels of ABCC4 were screened and amplified.
(§3) Antibody binding to cells was evaluated by flow cytometry. Murine C6 cells stably transfected to express human or cynomolgus ABCC4 were washed once in flow cytometry buffer (PBS+2% FBS+0.02% sodium azide), resuspended at 2×10^6 cells/mL in flow cytometry buffer, and dispensed into 96-well microtiter plates at 0.1 mL/well. Recombinant antibodies were added to cells at 5 ug/mL for initial binding confirmation, or serially diluted from 100 ug/mL in flow cytometry buffer. After incubating cells on ice for 30 min, cells were washed twice with flow cytometry buffer. Bound antibody was detected with PE-labeled F(ab′)2 fragment goat anti-human IgG (Jackson ImmunoResearch) and evaluated on an Attune N×T flow cytometer. EC50 is calculated to be the concentration of antibody that gives half maximal response.
(§4) In a different experiment, using a different C6.cC4 cell line, detecting the binding of anti-ABCC4 antibodies to C6 cells stably transfected to express human ABCC4 measured by FACS and to C6 cells stably transfected to express cynomolgus ABCC4 measured by FACS, the results set forth in Table 4 were obtained. Negative (−)=Rmax (MFI) below background level. Positive (+)=MFI>3× background level.

| Molecule | Human ABCC4 binding |
| --- | --- |
| B1 | + (Positive (+)=MFI>3× background level) |
| B2 | + (Positive (+)=MFI>3× background level) |
| B3 | + (Positive (+)=MFI>3× background level) |
| B4 | + (Positive (+)=MFI>3× background level) |
| B5 | + (Positive (+)=MFI>3× background level) |
| B6 | + (Positive (+)=MFI>3× background level) |
| B7 | + (Positive (+)=MFI>3× background level) |
| B8 | + (Positive (+)=MFI>3× background level) |
| B9 | + (Positive (+)=MFI>3× background level) |
| B10 | + (Positive (+)=MFI>3× background level) |

system: cynomolgus ABCC4; test: Flow cytometry (FACS) binding to C6 cells stably transfected to express cynomolgus ABCC4 (different experiment, different C6.cC4 cell line, Table 4); parameters: key to Cynomolgus ABCC4 binding: Negative (−)=Rmax (MFI) below background level; Positive (+)=MFI>3× background level; details: different C6.cC4 cell line, C6 cells stably transfected to express cynomolgus ABCC4, FACS; Table 4
Method: as §1, §2, §3, §4

| Molecule | Cynomolgus ABCC4 binding |
| --- | --- |
| B1 | − |
| B2 | − |
| B3 | − |
| B4 | − |
| B5 | − |
| B6 | − |
| B7 | − |
| B8 | − |
| B9 | − |
| B10 | − |
